Molecular target: gp120 of HIV-1 IIIB (on virus) (HIV-1 IIIB)
Assay: cell-based or functional assay

Which results are given for KILGNQGSFLTKGPS [CD4 peptide Seq. Id. No. 6 without the coupled sugar]?
neutralization of HIV-1 IIIB (reduction of syncytia/PFU, U87/CD4 cells); CD4 peptide alone, 0.1 ug/ml: < 0.3 fraction neutralized (0.3 = 30%); neutralization of HIV-1 IIIB (reduction of syncytia/PFU, U87/CD4 cells); CD4 peptide alone, 1 ug/ml: < 0.3 fraction neutralized (0.3 = 30%); neutralization of HIV-1 IIIB (reduction of syncytia/PFU, U87/CD4 cells); CD4 peptide alone, 10 ug/ml: < 0.3 fraction neutralized (0.3 = 30%)

What does the source list for NSNQIKILGNQGSFL [CD4 peptide Seq. Id. No. 5 without the coupled sugar]?
neutralization of HIV-1 IIIB (reduction of syncytia/PFU, U87/CD4 cells); CD4 peptide alone, 0.1 ug/ml: < 0.3 fraction neutralized (0.3 = 30%); neutralization of HIV-1 IIIB (reduction of syncytia/PFU, U87/CD4 cells); CD4 peptide alone, 1 ug/ml: < 0.3 fraction neutralized (0.3 = 30%); neutralization of HIV-1 IIIB (reduction of syncytia/PFU, U87/CD4 cells); CD4 peptide alone, 10 ug/ml: < 0.3 fraction neutralized (0.3 = 30%)

What does the source list for QFHWKNSNQIKILGN [CD4 peptide Seq. Id. No. 4 without the coupled sugar]?
neutralization of HIV-1 IIIB (reduction of syncytia/PFU, U87/CD4 cells); CD4 peptide alone, 0.1 ug/ml: < 0.3 fraction neutralized (0.3 = 30%); neutralization of HIV-1 IIIB (reduction of syncytia/PFU, U87/CD4 cells); CD4 peptide alone, 1 ug/ml: < 0.3 fraction neutralized (0.3 = 30%); neutralization of HIV-1 IIIB (reduction of syncytia/PFU, U87/CD4 cells); CD4 peptide alone, 10 ug/ml: < 0.3 fraction neutralized (0.3 = 30%)

What does the source list for QGSFLTKGPSKLNDR [CD4 peptide Seq. Id. No. 7 without the coupled sugar]?
neutralization of HIV-1 IIIB (reduction of syncytia/PFU, U87/CD4 cells); CD4 peptide alone, 0.1 ug/ml: < 0.3 fraction neutralized (0.3 = 30%); neutralization of HIV-1 IIIB (reduction of syncytia/PFU, U87/CD4 cells); CD4 peptide alone, 1 ug/ml: < 0.3 fraction neutralized (0.3 = 30%); neutralization of HIV-1 IIIB (reduction of syncytia/PFU, U87/CD4 cells); CD4 peptide alone, 10 ug/ml: < 0.3 fraction neutralized (0.3 = 30%)

Source: patent publication US20050074854A1 (TRIPEP, published 2005)
